In patent EP4678648A1 one finds Kd data, which are given here for one substance.

A word on the Kd: it is the constant that tells how readily two partners part at equilibrium. Read a low Kd as higher affinity.

For the experiment, the target named is FcRn (Neonatal Fc Receptor). Kind of experiment: SPR (BIAcore T200), FcRn amine-coupled on CM5 chip, antibody 1.96-31.25 nM flowed, pH 6.0 or 7.4 not given, 1:1 fit; Table 4 taken as the FcRn table. Background: SPR reads the build-up and loss of mass on a sensor chip optically.

For Trastuzumab (antibody), the Kd was found to be 0.572 nM.
